Experimental data: patent US20190015473A1 (MIT, published 2019)

Molecular target: T1, Sin3A, endogenous in Neuro2A cells (UniProt Q60520 1-1274, limits assumed)
T1 sequence (looked up): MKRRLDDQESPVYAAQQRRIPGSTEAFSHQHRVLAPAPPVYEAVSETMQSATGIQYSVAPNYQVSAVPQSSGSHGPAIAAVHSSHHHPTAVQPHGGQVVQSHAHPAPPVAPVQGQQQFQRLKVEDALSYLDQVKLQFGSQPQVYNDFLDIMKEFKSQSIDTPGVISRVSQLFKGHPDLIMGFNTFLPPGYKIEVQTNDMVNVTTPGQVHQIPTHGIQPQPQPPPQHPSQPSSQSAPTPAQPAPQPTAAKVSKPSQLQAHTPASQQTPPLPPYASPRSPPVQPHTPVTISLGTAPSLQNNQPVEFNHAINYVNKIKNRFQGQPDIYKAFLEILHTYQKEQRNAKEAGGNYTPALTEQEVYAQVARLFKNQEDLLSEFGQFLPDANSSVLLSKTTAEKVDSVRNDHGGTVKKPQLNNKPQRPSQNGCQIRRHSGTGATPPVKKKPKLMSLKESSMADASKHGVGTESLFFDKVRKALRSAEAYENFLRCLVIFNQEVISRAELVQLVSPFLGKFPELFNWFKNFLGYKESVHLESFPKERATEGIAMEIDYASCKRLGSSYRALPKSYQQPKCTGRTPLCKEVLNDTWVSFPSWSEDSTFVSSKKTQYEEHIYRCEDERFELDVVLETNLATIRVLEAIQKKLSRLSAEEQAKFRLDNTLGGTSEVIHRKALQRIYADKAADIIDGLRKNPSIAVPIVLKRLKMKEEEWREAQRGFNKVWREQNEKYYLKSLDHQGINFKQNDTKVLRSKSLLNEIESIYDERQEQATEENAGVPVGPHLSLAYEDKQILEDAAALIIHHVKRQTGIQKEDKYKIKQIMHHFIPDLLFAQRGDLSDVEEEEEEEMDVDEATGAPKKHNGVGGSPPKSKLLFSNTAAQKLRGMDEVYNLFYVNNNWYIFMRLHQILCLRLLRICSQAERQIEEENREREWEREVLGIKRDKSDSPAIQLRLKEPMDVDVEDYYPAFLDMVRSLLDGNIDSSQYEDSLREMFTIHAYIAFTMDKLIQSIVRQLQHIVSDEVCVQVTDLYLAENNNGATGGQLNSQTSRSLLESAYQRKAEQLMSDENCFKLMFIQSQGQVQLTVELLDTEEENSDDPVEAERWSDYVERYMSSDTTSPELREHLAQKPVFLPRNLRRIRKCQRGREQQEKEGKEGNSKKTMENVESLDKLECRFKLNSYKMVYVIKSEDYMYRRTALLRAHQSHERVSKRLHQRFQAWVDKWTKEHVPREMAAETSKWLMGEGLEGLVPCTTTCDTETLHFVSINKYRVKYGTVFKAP
Assay: co-immunoprecipitation (anti-Flag) from transfected N2A cells, western blot
Description: Brain tissues or cell pellets were lysed in 50 mM Tris-HCl (pH8.0), 150 mM NaCl, 1 mM EDTA, 1% NP-40, and complete protease inhibitor cocktail (Roche) with 20 strokes using the Dounce tight homogenizer. After centrifugation at 10000×g twice for 10 min, supernatants were subjected to co-immunoprecipitation or western blot analysis (Bio-rad). Two micrograms of anti-HDAC2 antibody (ab12169) or 15 μL of anti-Flag M2 affinity gels (Sigma) were used for immunoprecipitations. The antibodies used for immunoblotting were anti-HDAC2 (1 μg/mL, ab12169), anti-Sp3 (1 μg/mL, sc-644 X), anti-Sin3A (1 μg/mL, Abcam; ab3479), and […] (1:500, Sigma; F2043).
If the divergent C-terminus of HDAC2 alone is capable of binding to Sp3, the HDAC2-Sp3 interaction may potentially be inhibited through over-expression of this domain. To test this, the C-terminal domain of either HDAC2 (termed 2C) or HDAC1 (termed 1C) fused with mCherry, or mCherry alone, was transfected into neuronal N2A cells. Using co-IP experiments it was shown that 2C, but not 1C or mCherry alone, robustly bound to endogenous Sp3 (FIG. 6A). Importantly, binding of 2C to Sin3A, a well characterized partner of the HDAC1/2 complexes that controls cell cycle progression, was not detected.

B1: C-terminal domain of HDAC2 (termed 2C) fused with mCherry, flag-tagged (other, UniProt Q92769 390-488, looked up)
chain: VHEDSGDEDGEDPDKRISIRASDKRIACDEEFSDSEDEGEGGRRNVADHKKGAKKARIEEDKKETEDKKTDVKEEDKSKDNSGEKTDTKGTKSEQLSNP
notes: The part order follows the printed name 'mCherry-2C'; the Flag position is unknown; also called mCherry-2C; HDAC2 C-terminal fragment (2C); not shown: Flag tag; mCherry (engineered red fluorescent protein)
binding result: no binding
